The text below walks through data of the supplement of paper PMC12042874.

± gives the uncertainty stated by the source.

This data set can be described thus: amyloid nucleation score (Sup35N fusion, yeast selection) (log enrichment); library NNK1; higher = more nucleation; inactive = no reads after selection. The procedure, abridged: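 Nucleation score: DiMSum log enrichment of output over input reads, centred on the mode score of non-aggregating sequences. Only sequences with at least 100 input reads were kept. Reads came from Illumina sequencing of plasmid inserts before and after 7 days of growth at 30°C without adenine and uracil, in psi-negative yeast expressing Sup35N fused to peptides of 20 random codons after 24 hours of induction with 100 μM copper sulfate.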
In the case of NLYFIHVSRMIWSNSV, the amyloid nucleation score amounted to 5.02 ± 0.075.

In turn, NMDGLAPISGSFYSRSGNFI came in with an amyloid nucleation score of 0.964 ± 0.61.

As for NNFGFET, the amyloid nucleation score was 0.671 ± 0.31.

In turn, NNGPIPNILKEL registered an amyloid nucleation score of 0.523 ± 0.41. With NNIVLDFLFGVSLHRFGPHH, the amyloid nucleation score is 4.43 ± 0.14. In turn, NNKDISYGREAGGYEVERKD returned an amyloid nucleation score of -0.907 ± 1.2. With NNKKNY, the amyloid nucleation score is -0.505 ± 0.27.

With NNLFYEIRM, the amyloid nucleation score was 1.92 ± 0.17.

In turn, NNRIRRGGSVSVVMTVCDMD came in with an amyloid nucleation score of 1.81 ± 0.34. NNSYFMCNTLRRVLMGLLLG: the amyloid nucleation score came to 1.11 ± 0.65.

On to NNTDYLNCYTAICSSNTVAG, for which the amyloid nucleation score result was “inactive”. The same measure for NPGIDYNERYWMG: -1.09 ± 1.1; for NPNFDRGQRSLQLDIMVKWR: 1.97 ± 0.19. For the substance NPNTKYINCPHRVAFRGKLM, the amyloid nucleation score worked out at 0.552 ± 0.74.

NPRISCFVLQIRSAALSQSV registered an amyloid nucleation score of -0.007 ± 0.92.

Consider NPSGFRSTEWYV, for which the amyloid nucleation score was -0.421 ± 0.56. The same measure for NQACAFYNRLRFGK: 3.27 ± 0.14; for NQMGRRQRVLRSSDSRPTVL: -0.114 ± 0.74; for NQMVWMVELWRTVDCVVLNV: -0.17 ± 0.34.

The substance NQTNIMCSPNIICSVSGQSG came in with an amyloid nucleation score of 6.743 ± 0.047. NQWCAFWYRESSRVYDCDWL had an amyloid nucleation score of -0.478 ± 0.53. The same measure for NQYLDVGVRKSNAECKVPHE: “inactive”; for NRCCVPTKATN: 0.27 ± 0.53. The value for NREGCIMWHRRVLARRCLTS was 0.145 ± 0.89; that for NRFFSRVKKYPYTLSYPGFC was 0.065 ± 0.29. The value for NRNVYRSGVFGSGVWTRVER was 0.15 ± 0.45; that for NRRMCFRCIFGFHVCKLNGW was -0.027 ± 0.5.

On to NRRVPLIHCYLMCGYTGTCW, for which the amyloid nucleation score worked out at 0.249 ± 0.4. The same measure for NRRVSLCRASCSIMRVKPLG: -0.261 ± 0.56. The value for NRSVRGVFLEGNVRFCWLRE was 1.21 ± 0.85; that for NRWSGLSHRS was -1.63 ± 2.1. The value for NRYIRELGRKTYVLRKEFRG was -0.274 ± 1.2. NSFRTGVLYSMESEGMAWWC displayed an amyloid nucleation score of -0.044 ± 0.76.

NSGFRAASS showed an amyloid nucleation score of 2.02 ± 0.55.

Substance NSLMFRPWTLGDF showed an amyloid nucleation score of -0.434 ± 1.7.

In the case of NSNARAGVLDLPSCRTVVIE, the amyloid nucleation score amounted to 0.68 ± 0.65. For the substance NSRMMLGVLSSVAYGVRMVW, the amyloid nucleation score was 0.651 ± 0.56.

As to NSSKAMKKQVHLLFFRK, the amyloid nucleation score came to 0.699 ± 0.42. The value for NSSSIQVANRARDV was “inactive”; that for NSTPLADRCSVGMLPALKAD was -0.351 ± 0.63; that for NSYKCIWMSLGVV was -0.897 ± 0.38. The same measure for NSYLCCIWK: 7.32 ± 0.08; for NTAQVLYYL: -0.674 ± 0.22.

The substance NTCHKIDSTI came in with an amyloid nucleation score of -0.13 ± 0.59. The value for NTDLTNRSDYLYIV was -1.78 ± 1.2; that for NTESLEFRSKKGGNCRAGLS was 0.495 ± 0.97.

In the case of NTIEGV, the amyloid nucleation score entry was “inactive”. The value for NTKSTPNTSVLFSLTTRI was 1.3 ± 0.15. In the case of NTKTNGTSIGNSTVVLHLIA, the amyloid nucleation score is 6.409 ± 0.057. The same measure for NTMGSNWYMVVNSWFVRRCS: -1.01 ± 1.2; for NTREVSVRETDCCKLTCMIA: 7.743 ± 0.043; for NVAFYVTVV: -0.049 ± 0.26. Take NVAPSQSFPSLYCSE: the amyloid nucleation score result was “inactive”. The same measure for NVDFLISQSRIFYIERLSSQ: 2.77 ± 0.16; for NVDWSPKRNINMGGWEKWLV: 0.261 ± 0.92; for NVGYTYGYRKNSADNMAFCV: “inactive”. The value for NVMQKNLFGSCIILLSWSLS was 0.078 ± 0.26; that for NVNWKWVGNTLVVSIMVEAN was “inactive”. In turn, NVRSFWFSGNQSNIGGICWG returned an amyloid nucleation score of 0.204 ± 0.43. The value for NVSFWFYPLSAFSRPFFGLH was 2.74 ± 0.28; that for NVVHRLLWQSSVTSYIAVSY was 1.86 ± 0.14; that for NVYFLPIMA was -1.06 ± 0.54.

In turn, NVYLGGLVQYFCQWLAGSIR showed an amyloid nucleation score of 0.59 ± 0.62. The same measure for NWDGLYVYEYSRFVVASCRN: 1.2 ± 0.2; for NWEKVNLLTLRNTFRCSSRA: 0.751 ± 0.27.

The substance NWSEWGSRIHFKCWIEMLLR had an amyloid nucleation score of 0.174 ± 0.55.

The substance NYAAPVSCRGLADEGRSRTD displayed an amyloid nucleation score of -0.4 ± 0.49. The value for NYETPGRFDKSVSTGEAFQS was -0.868 ± 0.55. In the case of NYIVLFSSRDVCTHNMYKTV, the amyloid nucleation score came out at 0.342 ± 0.71. The value for NYLGS was -0.481 ± 0.33; that for NYMWSQPLLYFECGRDQWLA was 2.92 ± 0.11; that for NYSDLKRGHRLDSADGWDGI was -0.613 ± 1.1. The same measure for NYSDYMWTRLANLA: -0.2 ± 0.72; for NYVPIWSGA: “inactive”. The value for PALNRFLGTERDYDRYAGIA was -0.8 ± 0.49; that for PAPPAQHIYVQRVYSFCQRG was -0.161 ± 0.9. The substance PATMDLIVVPWITVLKEIN had an amyloid nucleation score of -0.451 ± 0.89. PCDSICALFALSKHQVGGGW registered an amyloid nucleation score of 0.324 ± 0.55. The value for PCFYSSGDVVMNRGV was -0.507 ± 0.26. The same measure for PCGEKD: 0.559 ± 0.9.

Turning to PCLNRLVV, the amyloid nucleation score came to 0.386 ± 0.5. The value for PCLVGIDMVTMVAESLCGSG was -0.958 ± 1.3; that for PDCLPPWSRRLLGNRVAIGL was 1.01 ± 0.57; that for PDRDYFLFFTLHCVCSSFAE was “inactive”. The value for PDSLFPLCFLRLWLISSIVR was 1.49 ± 0.84. As for PECQSGCMV, the amyloid nucleation score is -0.163 ± 0.41. The value for PFAGNHTMWKVPTWGKSWKG was -0.398 ± 0.7; that for PFCRSRHAGHSRSLQVEKFM was -0.004 ± 0.29. The value for PFIDNRFKLFRSDGTVRWVI was “inactive”. Substance PFNGSLFYYVSWVKTNYGYY displayed an amyloid nucleation score of 0.225 ± 0.93.

As for PFVYGLCESFPFGCQYGWGC, the amyloid nucleation score result is “inactive”. The same measure for PFYNSQ: -0.371 ± 0.41; for PGGSIRGFSRLSKLHWDRGE: 0.252 ± 0.4. Substance PGTGPVCQNGDVAF showed an amyloid nucleation score of -0.948 ± 1.7. Turning to PGTSARRIDTKDVPYPFIPS, the amyloid nucleation score is 1.16 ± 0.51. The value for PHSSFPESSCKGSGSVSWAE was -0.172 ± 0.74; that for PIDGLPGASFGLGFQCGVGM was 0.527 ± 0.76; that for PILMFTVCMSDSQTVLNFCS was 6.56 ± 0.047.

In turn, PINLLVLIAGNFYWLWTFGQ returned an amyloid nucleation score of 2.84 ± 0.15. The value for PIRPWAHYGMANWVQKAF was -0.763 ± 0.52. Turning to PIVMCFFGKV, the amyloid nucleation score is -0.201 ± 0.41. In turn, PKNGGQTMAYK registered an amyloid nucleation score of -0.665 ± 0.6.

PLAHLSRLEESYWPSQTHPS had an amyloid nucleation score of 0.091 ± 0.54. Substance PLDHLHLSKWCTSEKDLVV registered an amyloid nucleation score of 0.766 ± 0.38. The value for PLEVWNRGVGPIGCVCRGLK was 1.29 ± 0.57. In turn, PLGGLGYV came in with an amyloid nucleation score of 0.543 ± 0.73.

With PLHWS, the amyloid nucleation score is 0.416 ± 0.3. The value for PLLQKSWIRALSFFVNHTS was 0.126 ± 0.51; that for PLMWS was 0.251 ± 0.29. The same measure for PLRASRTMTSGKLQPNLRRK: 0.035 ± 0.76; for PLSVNLKYVYNLVVDLFGLP: 2.61 ± 0.19; for PLVGWSRYSGAIPTSVMFLA: 4.21 ± 0.071. As to PLWLCGGFQQWASGCRSVGL, the amyloid nucleation score was -1.06 ± 0.49.

PMAVRLSYCCNRIYVLY: the amyloid nucleation score was 4.47 ± 0.097. The value for PMQNSTPLFYSNAWSE was -0.096 ± 1.1; that for PMTVSNEFAPSILLSRALFW was 3.99 ± 0.14; that for PMYLSSVVCFSKRHMPANRG was -0.138 ± 0.52.

PNMGREYKIGTGHYYEQFFH: the amyloid nucleation score was -0.082 ± 0.17. The same measure for PNRRCCPMVGFIWLYRVL: 0.836 ± 0.85; for PNVFFFLISMIFSDFLVGSG: 0.192 ± 1.2. Regarding PPETRTPVINRSLSIEFDPK, the amyloid nucleation score was -0.022 ± 0.68. Turning to PPLAYWVYPMVRTLFEGRVP, the amyloid nucleation score worked out at 0.754 ± 0.45. The same measure for PPWPVNSDDPGHYETSSNFS: 1.29 ± 0.73; for PQSHQKTRTFLFMRSTSSMW: -0.847 ± 0.52. The value for PRGLP was 0.694 ± 0.9; that for PRLARMLLHDGAEYDCELSC was -0.963 ± 1.2; that for PRNQNMT was 0.992 ± 1. On to PRRMKT, for which the amyloid nucleation score came to 0.15 ± 0.33. The substance PRRQETWANEGHGM gave an amyloid nucleation score of 0.426 ± 0.93. Regarding PRTNSNMIKCYIFDNAWNQL, the amyloid nucleation score is 6.234 ± 0.055.

In turn, PSFMMFKSYTPQDFGMH had an amyloid nucleation score of -0.318 ± 0.99.

The substance PSHLRYAAH came in with an amyloid nucleation score of -0.038 ± 0.54.

PSIEEEFSWVPAVFFFTWDM: the amyloid nucleation score was -0.706 ± 1.2. For PSIHTFCTAL, the amyloid nucleation score came out at 0.318 ± 0.33. The same measure for PSKSVCKPCRWSGSWWGER: 0.073 ± 1.6; for PSLVQNGSQSTPVEDYIIEY: -0.618 ± 0.65. The value for PSSIWNAMFYGYNCMYLLKT was -0.392 ± 0.34; that for PSWWVMEFTWIPQNGGLLSL was 6.64 ± 0.082. PTCLSWGGVMRRDL yielded an amyloid nucleation score of 0.341 ± 0.48.
